Among the data in patent publication US20250049935, “BOTTLEBRUSH CONJUGATES FOR USE AS OLIGONUCLEOTIDE ENHANCERS” (Northeastern University, published 2025) are Kd values, retold here.

In the data set the target is alpha thrombin (Homo sapiens, UniProt P00734;P00734 P00734:328-363,P00734:364-622). Kind of data set: MST; 20 mM HEPES pH 7.4, 150 mM NaCl, 2 mM CaCl2, 0.05% Tween; 10 nM thrombin.

B1: HD1 (structured_DNA)
DNA: GGTTGGTGTGGTTGG
By Kd is commonly meant the concentration at which binding is half-saturated. As to B1, the dissociation constant Kd stood at 5.4 nM.
